Results on 2 molecules are retold here after doi:10.1101/2022.04.24.489327.

In this series the target is LRRK2 wild-type (UniProt Q5S007 1-2527). As to the kind of experiment: EMSA. For orientation: A gel shift assay detects complexes by their altered migration in electrophoresis.
Chain of LRRK2 wild-type (Q5S007 whole entry): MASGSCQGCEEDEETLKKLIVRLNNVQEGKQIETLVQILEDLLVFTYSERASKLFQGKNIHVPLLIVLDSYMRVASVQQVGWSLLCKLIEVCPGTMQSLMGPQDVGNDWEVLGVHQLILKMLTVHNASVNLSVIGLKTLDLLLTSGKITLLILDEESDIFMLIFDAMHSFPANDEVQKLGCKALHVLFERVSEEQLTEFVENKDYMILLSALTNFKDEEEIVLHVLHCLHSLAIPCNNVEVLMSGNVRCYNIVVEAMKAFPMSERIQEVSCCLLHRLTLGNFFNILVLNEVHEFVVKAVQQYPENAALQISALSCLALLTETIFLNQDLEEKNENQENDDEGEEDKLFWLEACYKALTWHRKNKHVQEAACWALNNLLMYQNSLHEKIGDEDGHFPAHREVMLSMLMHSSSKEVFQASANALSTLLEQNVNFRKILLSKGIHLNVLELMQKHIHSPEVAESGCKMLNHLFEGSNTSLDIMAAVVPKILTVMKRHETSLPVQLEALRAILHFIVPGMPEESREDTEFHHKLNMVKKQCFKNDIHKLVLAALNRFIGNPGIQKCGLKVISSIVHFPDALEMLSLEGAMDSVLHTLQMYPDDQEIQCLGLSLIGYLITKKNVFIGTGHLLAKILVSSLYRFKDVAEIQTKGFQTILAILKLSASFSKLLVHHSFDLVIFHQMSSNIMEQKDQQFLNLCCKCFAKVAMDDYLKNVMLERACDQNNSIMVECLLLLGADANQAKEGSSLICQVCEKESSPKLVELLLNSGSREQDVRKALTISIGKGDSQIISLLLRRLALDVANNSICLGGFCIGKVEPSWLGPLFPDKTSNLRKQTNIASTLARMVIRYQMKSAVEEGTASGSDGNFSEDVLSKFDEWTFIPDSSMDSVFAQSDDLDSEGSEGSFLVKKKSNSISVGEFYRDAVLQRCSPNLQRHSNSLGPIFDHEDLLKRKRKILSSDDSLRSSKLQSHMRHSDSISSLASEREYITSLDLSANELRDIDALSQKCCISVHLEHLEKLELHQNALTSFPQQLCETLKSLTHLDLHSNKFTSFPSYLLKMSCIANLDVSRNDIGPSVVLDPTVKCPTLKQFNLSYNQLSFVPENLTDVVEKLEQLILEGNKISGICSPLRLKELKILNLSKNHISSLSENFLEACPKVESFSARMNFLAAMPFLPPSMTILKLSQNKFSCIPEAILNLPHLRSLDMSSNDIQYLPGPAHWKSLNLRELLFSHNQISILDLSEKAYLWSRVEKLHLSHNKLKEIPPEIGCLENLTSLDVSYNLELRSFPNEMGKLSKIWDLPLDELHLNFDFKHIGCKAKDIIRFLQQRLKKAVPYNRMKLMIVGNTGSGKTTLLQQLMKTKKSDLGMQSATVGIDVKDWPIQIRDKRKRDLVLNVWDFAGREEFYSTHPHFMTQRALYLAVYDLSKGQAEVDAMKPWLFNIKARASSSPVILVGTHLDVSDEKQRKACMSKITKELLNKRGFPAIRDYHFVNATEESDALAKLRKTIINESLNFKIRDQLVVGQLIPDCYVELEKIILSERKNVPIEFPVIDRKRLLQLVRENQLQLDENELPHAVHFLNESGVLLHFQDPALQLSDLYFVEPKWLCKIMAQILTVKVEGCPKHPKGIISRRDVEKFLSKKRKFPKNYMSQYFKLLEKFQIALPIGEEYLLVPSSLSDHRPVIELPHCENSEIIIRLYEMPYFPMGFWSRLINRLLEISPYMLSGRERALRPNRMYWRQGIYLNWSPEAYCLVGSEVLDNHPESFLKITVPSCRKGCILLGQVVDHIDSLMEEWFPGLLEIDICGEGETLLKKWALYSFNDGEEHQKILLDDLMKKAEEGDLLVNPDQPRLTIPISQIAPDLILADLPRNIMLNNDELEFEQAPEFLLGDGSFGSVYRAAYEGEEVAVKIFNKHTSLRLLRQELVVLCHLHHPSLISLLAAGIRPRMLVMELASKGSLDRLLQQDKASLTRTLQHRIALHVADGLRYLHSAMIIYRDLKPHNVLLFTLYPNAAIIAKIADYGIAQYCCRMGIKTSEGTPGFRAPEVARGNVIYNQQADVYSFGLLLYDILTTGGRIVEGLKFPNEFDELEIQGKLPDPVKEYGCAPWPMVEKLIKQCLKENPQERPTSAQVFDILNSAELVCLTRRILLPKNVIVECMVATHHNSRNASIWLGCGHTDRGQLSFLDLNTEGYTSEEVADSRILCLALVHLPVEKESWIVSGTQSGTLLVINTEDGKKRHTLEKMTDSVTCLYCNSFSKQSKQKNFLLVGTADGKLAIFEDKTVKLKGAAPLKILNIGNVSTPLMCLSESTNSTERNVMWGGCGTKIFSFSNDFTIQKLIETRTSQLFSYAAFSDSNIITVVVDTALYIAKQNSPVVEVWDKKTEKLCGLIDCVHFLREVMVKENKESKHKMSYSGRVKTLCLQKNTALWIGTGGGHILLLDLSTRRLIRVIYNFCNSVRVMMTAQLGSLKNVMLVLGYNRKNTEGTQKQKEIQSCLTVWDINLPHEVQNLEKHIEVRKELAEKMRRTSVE

As to AGAAAAAAUAUUUAUUGUAUUUUAGUAUAUUUAUAUAA (ssRNA) [BDNF 3'UTR neuronal ELAV binding segment (U-rich)], the binding result is on record as “no binding”.
Regarding GGAAACAGUCAUUUGCGCACAACUUUAAAAGUCUGCAU (ssRNA) [BDNF 3'UTR control segment without neuronal ELAV sites], the binding result is recorded as “no binding”.
